# Test results reported in patent publication US20190177716A1.
# Key:
# [1] = target: CD3ε of the TCR-CD3 complex expressed on Jurkat cells (T-cell Surface Glycoprotein CD3 Epsilon) (human) (UniProt P07766); test: flow cytometry on Jurkat.E6 cells at 25 C, secondary goat anti-mouse IgG staining, one-site specific binding fit
# [2] = target: CD28 expressed on Jurkat.E6 cells (human) (UniProt P10747); test: as above
Substance,Kd [1],Kd [2]
"anti-CD3 monoclonal antibody clone UCHT1 (mouse anti-human, isotype IgG1, BioXCell Catalog# BE0231)",1.4 nM,–
"anti-CD28 monoclonal antibody (mouse anti-human, isotype IgG2a, Clone 9.3, BioXCell Catalog# BE0248)",–,1.6 nM
"anti-CD3 monoclonal antibody clone OKT3 (mouse anti-human, isotype IgG2a, BioXCell Catalog# BE0001-2)",1.5 nM,–
